Paper PMC12533369, “Citrullination of AKT2 Catalyzed by PAD1 Facilitates the Maintenance of Stemness Characteristics of Ovarian Cancer Stem‐Like Cells in Ovarian Cancer” (Advanced Science, 2025)

T1: GST-tagged PAD1 (human, UniProt Q9ULC6 1-663)
T1 construct: peptidylarginine deiminase 1 (PAD1), recombinant human; also called GST-PAD1; recombinant human PAD1; source: recombinant
T1 sequence (looked up): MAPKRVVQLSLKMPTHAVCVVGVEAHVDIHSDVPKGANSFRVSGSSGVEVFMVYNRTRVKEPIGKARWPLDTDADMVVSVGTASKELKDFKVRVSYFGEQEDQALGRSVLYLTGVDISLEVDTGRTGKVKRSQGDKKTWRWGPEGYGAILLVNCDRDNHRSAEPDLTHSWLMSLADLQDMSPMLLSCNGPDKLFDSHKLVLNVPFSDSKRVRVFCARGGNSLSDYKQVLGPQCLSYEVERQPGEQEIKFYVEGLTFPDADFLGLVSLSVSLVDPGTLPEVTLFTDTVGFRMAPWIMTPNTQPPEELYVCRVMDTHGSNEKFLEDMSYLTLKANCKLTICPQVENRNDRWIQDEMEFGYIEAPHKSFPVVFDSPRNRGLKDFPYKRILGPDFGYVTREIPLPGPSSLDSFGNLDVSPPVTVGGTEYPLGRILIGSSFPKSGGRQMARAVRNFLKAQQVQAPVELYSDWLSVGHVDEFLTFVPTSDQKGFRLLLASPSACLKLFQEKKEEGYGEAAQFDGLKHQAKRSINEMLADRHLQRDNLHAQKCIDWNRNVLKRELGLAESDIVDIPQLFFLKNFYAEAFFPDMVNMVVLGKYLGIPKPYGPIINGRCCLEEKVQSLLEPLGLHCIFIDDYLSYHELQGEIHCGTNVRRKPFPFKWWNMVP


Target: T1, GST-tagged PAD1
Assay: pull-down; GST pull-down: purified His-tagged AKT2 (full length or truncated) incubated with GST-tagged PAD1 or GST alone
Details: both partners purified

Binder	binding result
His-tagged full-length AKT2 (enzyme, UniProt P31751 1-481, looked up, AKT2, full length; whether 'human' also covers AKT2 is not clear; also called His-AKT2 (full length); source: purified) MNEVSVIKEGWLHKRGEYIKTWRPRYFLLKSDGSFIGYKERPEAPDQTLPPLNNFSVAECQLMKTERPRPNTFVIRCLQWTTVIERTFHVDSPDEREEWMRAIQMVANSLKQRAPGEDPMDYKCGSPSDSSTTEEMEVAVSKARAKVTMNDFDYLKLLGKGTFGKVILVREKATGRYYAMKILRKEVIIAKDEVAHTVTESRVLQNTRHPFLTALKYAFQTHDRLCFVMEYANGGELFFHLSRERVFTEERARFYGAEIVSALEYLHSRDVVYRDIKLENLMLDKDGHIKITDFGLCKEGISDGATMKTFCGTPEYLAPEVLEDNDYGRAVDWWGLGVVMYEMMCGRLPFYNQDHERLFELILMEEIRFPRTLSPEAKSLLAGLLKKDPKQRLGGGPSDAKEVMEHRFFLSINWQDVVQKKLLPPFKPQVTSEVDTRYFDDEFTAQSITITPPDRYDSLGLLELDQRTHFPQFSYSASIRE	binds
His-AKT2 (kinase domain) (domain or fragment, UniProt P31751 152-481, looked up, AKT2 residues 152-481, the truncated variant that the text calls the kinase domain; also called His-tagged AKT2 (152–481 aa); source: purified) FDYLKLLGKGTFGKVILVREKATGRYYAMKILRKEVIIAKDEVAHTVTESRVLQNTRHPFLTALKYAFQTHDRLCFVMEYANGGELFFHLSRERVFTEERARFYGAEIVSALEYLHSRDVVYRDIKLENLMLDKDGHIKITDFGLCKEGISDGATMKTFCGTPEYLAPEVLEDNDYGRAVDWWGLGVVMYEMMCGRLPFYNQDHERLFELILMEEIRFPRTLSPEAKSLLAGLLKKDPKQRLGGGPSDAKEVMEHRFFLSINWQDVVQKKLLPPFKPQVTSEVDTRYFDDEFTAQSITITPPDRYDSLGLLELDQRTHFPQFSYSASIRE	binds
